Test results from paper PMC9851723.

Target: SARS-CoV-2 nucleocapsid protein (Np) (SARS-CoV-2, UniProt P0DTC9 1-419)
Assay: SPR

B1: A48t-T20-A61t (DNA-BC) (ssDNA)
DNA: TTCCTTAGGGGCACCGCTACATTTTTTTTTTTTTTTTTTTTTACCTTTACAGATCGGATTCTGTGGGGCG
Kd: 1.04 nM
